Tested on: peptide library, one residue held at a place counted from the S/T acceptor
Assay: relative phosphorylation of the sub-library (ratio to the mean residue at this position); higher = residue favoured
Settings: human
Method in brief: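 Each biotinylated degenerate peptide sub-library fixed one residue at one position around a central Ser/Thr and was incubated with a purified recombinant kinase, a human or orthologue construct, in 384-well plates. The 90 min reactions, under kinase-specific conditions, contained 50 μM peptide and 50 μM ATP spiked with γ-32P-ATP. Phosphorylation was read by phosphorimaging spots on streptavidin membranes and quantifying them by densitometry. Relative sub-library phosphorylation expresses each value as a ratio to the mean residue at that position.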

Sequence of MAP3K6, construct: aa620-950 (O95382 620-950, looked up): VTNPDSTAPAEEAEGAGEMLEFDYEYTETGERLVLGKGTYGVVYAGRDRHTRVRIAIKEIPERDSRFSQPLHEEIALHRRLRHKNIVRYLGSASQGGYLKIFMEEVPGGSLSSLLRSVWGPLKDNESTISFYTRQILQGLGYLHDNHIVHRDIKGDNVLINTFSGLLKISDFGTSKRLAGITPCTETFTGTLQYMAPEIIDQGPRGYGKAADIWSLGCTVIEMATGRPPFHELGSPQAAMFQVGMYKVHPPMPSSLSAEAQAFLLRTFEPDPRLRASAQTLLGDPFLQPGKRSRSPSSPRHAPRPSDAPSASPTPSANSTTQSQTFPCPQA

MAP3K6, construct: aa620-950 (from UniProt O95382)
relative phosphorylation
Settings	at +1	at +2	at +3	at +4	at -1	at -2	at -3	at -4	at -5
A fixed	1.34	0.898	1.23	0.902	1.33	1.5	1.24	1.03	1.15
D fixed	0.184	0.304	0.38	0.371	0.366	0.366	0.474	0.589	0.603
E fixed	0.255	0.23	0.335	0.36	0.391	0.365	0.561	0.641	0.712
F fixed	0.74	0.907	1.12	1.04	0.584	0.622	0.872	0.93	0.875
G fixed	0.715	0.78	1.05	1.12	1.91	1.18	1.15	1.09	1.15
H fixed	1.4	1.41	1.02	1.26	1.12	1.16	1.35	1.32	1.24
I fixed	1.26	0.568	0.606	1.07	0.588	0.879	0.736	0.725	0.613
K fixed	0.426	1.54	1.26	1.82	1.1	0.972	1.03	1.3	1.32
L fixed	1.36	0.912	1.2	0.797	0.805	0.922	0.913	0.76	0.86
M fixed	1.73	1.01	0.995	0.908	1.13	0.758	0.859	1.31	0.869
N fixed	0.754	0.839	0.793	0.822	0.94	1.41	1.02	0.958	1.03
P fixed	0.354	0.498	1.1	0.931	0.896	1.16	0.774	0.824	1.08
Q fixed	0.844	0.83	0.946	0.931	0.891	1.25	1.08	1.02	1.14
R fixed	0.594	2.05	1.57	1.66	1.72	1.37	1.55	1.18	1.43
V fixed	1.62	0.726	0.984	0.853	0.917	1.35	0.984	1.02	0.996
W fixed	1.38	1.19	1.1	0.955	0.951	0.748	1.25	1.12	1.05
Y fixed	2.05	2.31	1.3	1.19	1.36	0.979	1.17	1.19	0.881
pThr fixed	0.602	0.585	0.681	0.261	0.574	0.9	0.725	0.845	0.914
pTyr fixed	0.421	0.294	0.614	0.356	0.673	0.548	0.787	0.736	0.917

From the supplement of paper PMC9876800
